± gives the standard deviation of the averaged measurements.
Assays:
MCF7 = experiment: percentage of EdU-negative (G0-arrested) nuclei per well, 72 h; higher = more G0 arrest; conditions: reference: sequence is the full UniProt precursor, the tested protein was the secreted form or ectodomain
hTERT-HMEC = experiment: as above; conditions: reference: sequence is the full UniProt precursor, the tested protein was the secreted form or ectodomain
[1] = protein concentration 0.0065 µM
[2] = protein concentration 0.03125 µM
[3] = protein concentration 0.3125 µM
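Also: secreted proteins added to cultured cells, EdU pulse at the end, nuclei found by Hoechst imaging, EdU status from nuclear versus surrounding ring intensity ratio, PBS as neutral control.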

Sequence: MVGTKAWVFSFLVLEVTSVLGRQTMLTQSVRRVQPGKKNPSIFAKPADTLESPGEWTTWFNIDYPGGKGDYERLDAIRFYYGDRVCARPLRLEARTTDWTPAGSTGQVVHGSPREGFWCLNREQRPGQNCSNYTVRFLCPPGSLRRDTERIWSPWSPWSKCSAACGQTGVQTRTRICLAEMVSLCSEASEEGQHCMGQDCTACDLTCPMGQVNADCDACMCQDFMLHGAVSLPGGAPASGAAIYLLTKTPKLLTQTDSDGRFRIPGLCPDGKSILKITKVKFAPIVLTMPKTSLKAATIKAEFVRAETPYMVMNPETKARRAGQSVSLCCKATGKPRPDKYFWYHNDTLLDPSLYKHESKLVLRKLQQHQAGEYFCKAQSDAGAVKSKVAQLIVIASDETPCNPVPESYLIRLPHDCFQNATNSFYYDVGRCPVKTCAGQQDNGIRCRDAVQNCCGISKTEEREIQCSGYTLPTKVAKECSCQRCTETRSIVRGRVSAADNGEPMRFGHVYMGNSRVSMTGYKGTFTLHVPQDTERLVLTFVDRLQKFVNTTKVLPFNKKGSAVFHEIKMLRRKKPITLEAMETNIIPLGEVVGEDPMAELEIPSRSFYRQNGEPYIGKVKASVTFLDPRNISTATAAQTDLNFINDEGDTFPLRTYGMFSVDFRDEVTSEPLNAGKVKVHLDSTQVKMPEHISTVKLWSLNPDTGLWEEEGDFKFENQRRNKREDRTFLVGNLEIRERRLFNLDVPESRRCFVKVRAYRSERFLPSEQIQGVVISVINLEPRTGFLSNPRAWGRFDSVITGPNGACVPAFCDDQSPDAYSAYVLASLAGEELQAVESSPKFNPNAIGVPQPYLNKLNYRRTDHEDPRVKKTAFQISMAKPRPNSAEESNGPIYAFENLRACEEAPPSAAHFRFYQIEGDRYDYNTVPFNEDDPMSWTEDYLAWWPKPMEFRACYIKVKIVGPLEVNVRSRNMGGTHRQTVGKLYGIRDVRSTRDRDQPNVSAACLEFKCSGMLYDQDRVDRTLVKVIPQGSCRRASVNPMLHEYLVNHLPLAVNNDTSEYTMLAPLDPLGHNYGIYTVTDQDPRTAKEIALGRCFDGTSDGSSRIMKSNVGVALTFNCVERQVGRQSAFQYLQSTPAQSPAAGTVQGRVPSRRQQRASRGGQRQGGVVASLRFPRVAQQPLIN
- percentage of EdU-negative (MCF7; [1]): 25.3 ± 0.34%
- percentage of EdU-negative (MCF7; protein concentration 0.065 µM): 25.9 ± 2%
- percentage of EdU-negative (hTERT-HMEC; [1]): 4.85 ± 0.48%
- percentage of EdU-negative (hTERT-HMEC; protein concentration 0.065 µM): 4.77 ± 1%

Sequence: MVKQIESKTAFQEALDAAGDKLVVVDFSATWCGPCKMIKPFFHSLSEKYSNVIFLEVDVDDCQDVASECEVKCMPTFQFFKKGQKVGEFSGANKEKLEATINELV
- percentage of EdU-negative (MCF7; [2]): 25.2 ± 1.2%
- percentage of EdU-negative (MCF7; [3]): 23.8 ± 1.9%
- percentage of EdU-negative (hTERT-HMEC; [2]): 4.86 ± 0.3%
- percentage of EdU-negative (hTERT-HMEC; [3]): 4.9 ± 0.23%

Sequence: MVLAAPLLLGFLLLALELRPRGEAAEGPAAAAAAAAAAAAAGVGGERSSRPAPSVAPEPDGCPVCVWRQHSRELRLESIKSQILSKLRLKEAPNISREVVKQLLPKAPPLQQILDLHDFQGDALQPEDFLEEDEYHATTETVISMAQETDPAVQTDGSPLCCHFHFSPKVMFTKVLKAQLWVYLRPVPRPATVYLQILRLKPLTGEGTAGGGGGGRRHIRIRSLKIELHSRSGHWQSIDFKQVLHSWFRQPQSNWGIEINAFDPSGTDLAVTSLGPGAEGLHPFMELRVLENTKRSRRNLGLDCDEHSSESRCCRYPLTVDFEAFGWDWIIAPKRYKANYCSGQCEYMFMQKYPHTHLVQQANPRGSAGPCCTPTKMSPINMLYFNDKQQIIYGKIPGMVVDRCGCS
- percentage of EdU-negative (MCF7; [2]): 24.2 ± 2.7%
- percentage of EdU-negative (MCF7; [3]): 26.2 ± 3.2%
- percentage of EdU-negative (hTERT-HMEC; [2]): 4.52 ± 0.24%
- percentage of EdU-negative (hTERT-HMEC; [3]): 5.2 ± 0.9%

Source: the supplement of paper PMC11316812
